Assay results: patent US20220389118A1 (Chugai, published 2022)
One block for each binder: values may come before it.

Legend:
[1] = target: T1, human FcγRIIIa type V extracellular domain with C-terminal His tag (human, UniProt P08637 17-208); assay: SPR (Biacore)
T1 construct: extracellular domain; also called FcγRIIIaV; FcγRIIIa(V)

[2] = target: T2, human FcγRIIb extracellular domain with C-terminal His tag (human, UniProt P31994 43-217); assay: SPR (Biacore)
T2 construct: extracellular domain
T2 sequence (looked up): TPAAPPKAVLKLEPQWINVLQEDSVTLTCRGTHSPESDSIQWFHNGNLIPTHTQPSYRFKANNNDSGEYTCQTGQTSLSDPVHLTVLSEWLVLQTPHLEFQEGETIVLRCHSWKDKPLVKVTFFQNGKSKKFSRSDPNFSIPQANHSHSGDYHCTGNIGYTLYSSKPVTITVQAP

[3] = target: T3, human FcγRIa extracellular domain with C-terminal His tag (human, UniProt P12314 16-292); assay: SPR (Biacore)
T3 construct: extracellular domain
T3 sequence (P12314 16-292): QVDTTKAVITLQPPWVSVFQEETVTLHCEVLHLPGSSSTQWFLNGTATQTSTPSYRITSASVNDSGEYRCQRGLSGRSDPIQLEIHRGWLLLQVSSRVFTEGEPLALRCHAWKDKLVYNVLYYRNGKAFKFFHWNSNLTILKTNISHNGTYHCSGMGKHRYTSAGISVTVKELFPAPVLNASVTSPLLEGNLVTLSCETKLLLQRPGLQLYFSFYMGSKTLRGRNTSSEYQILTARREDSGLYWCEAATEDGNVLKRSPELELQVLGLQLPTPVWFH

[4] = target: T4, human FcγRIIa type R extracellular domain with C-terminal His tag (human, UniProt P12318 34-217); assay: SPR (Biacore)
T4 construct: extracellular domain; also called FcγRIIaR; FcγRIIa(R)
T4 sequence (looked up): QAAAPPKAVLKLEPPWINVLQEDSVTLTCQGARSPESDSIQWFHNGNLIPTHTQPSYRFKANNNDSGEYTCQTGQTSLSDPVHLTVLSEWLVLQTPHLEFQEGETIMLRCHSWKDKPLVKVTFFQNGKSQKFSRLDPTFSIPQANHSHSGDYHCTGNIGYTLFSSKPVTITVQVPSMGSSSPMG

[5] = target: T5, human FcγRIIb extracellular domain with C-terminal His tag (human, UniProt P31994 43-217); assay: SPR (Biacore); KD for FcγRIIaR divided by KD for FcγRIIb
T5 construct: extracellular domain; not shown: His tag at the C terminus
T5 sequence (looked up): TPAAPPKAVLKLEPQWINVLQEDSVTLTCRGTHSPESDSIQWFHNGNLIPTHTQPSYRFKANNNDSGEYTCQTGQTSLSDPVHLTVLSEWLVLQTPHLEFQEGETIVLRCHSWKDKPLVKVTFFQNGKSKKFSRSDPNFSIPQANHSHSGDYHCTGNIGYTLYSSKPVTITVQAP

[6] = target: T5, human FcγRIIb extracellular domain with …; assay: SPR (Biacore); KD of IL6R-B3/IL6R-L divided by KD of this antibody
[7] = target: T6, human FcγRIIa type R (R131) extracellular domain with C-terminal His tag (human, UniProt P12318 34-217); assay: as above
T6 construct: extracellular domain; also called FcγRIIaR; not shown: His tag at the C terminus
T6 sequence (looked up): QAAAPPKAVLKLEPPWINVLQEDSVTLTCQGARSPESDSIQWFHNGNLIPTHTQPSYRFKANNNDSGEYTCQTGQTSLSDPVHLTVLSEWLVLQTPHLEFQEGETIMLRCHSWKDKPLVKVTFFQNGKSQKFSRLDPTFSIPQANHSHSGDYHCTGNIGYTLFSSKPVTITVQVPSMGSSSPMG

[8] = target: T5, human FcγRIIb extracellular domain with …; assay: SPR (Biacore), antibody captured, FcγR analyte
[9] = target: T6, human FcγRIIa type R (R131) …; assay: SPR (Biacore), antibody captured, FcγR analyte
[10] = target: T7, human FcγRIa extracellular domain with C-terminal His tag (human, UniProt P12314 16-292); assay: SPR (Biacore), antibody captured, FcγR analyte
T7 construct: not shown: His tag at the C terminus
T7 sequence (P12314 16-292): as the sequence (P12314 16-292) above

[11] = target: T8, human FcγRIIb extracellular domain with C-terminal His tag (human, UniProt P31994 43-217); assay: SPR
T8 construct: extracellular domain; for crystals expressed with kifunensine and trimmed with Endo F1; also called FcγRIIb extracellular region
T8 sequence (looked up): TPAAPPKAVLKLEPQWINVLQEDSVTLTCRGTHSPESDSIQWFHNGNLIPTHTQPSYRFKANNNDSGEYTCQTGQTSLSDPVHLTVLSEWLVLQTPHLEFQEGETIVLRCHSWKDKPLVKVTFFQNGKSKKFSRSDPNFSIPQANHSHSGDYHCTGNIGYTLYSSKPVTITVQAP

[12] = target: T9, human FcγRIIa type R extracellular domain with C-terminal His tag (human, UniProt P12318 34-217); assay: SPR
T9 construct: extracellular domain; also called FcγRIIaR; FcγRIIa R
T9 sequence (looked up): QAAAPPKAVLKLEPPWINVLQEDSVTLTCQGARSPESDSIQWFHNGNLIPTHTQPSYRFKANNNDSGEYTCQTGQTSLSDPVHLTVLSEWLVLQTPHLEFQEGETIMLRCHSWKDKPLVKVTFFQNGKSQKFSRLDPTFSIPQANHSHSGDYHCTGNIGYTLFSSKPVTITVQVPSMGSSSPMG

T1 sequence (P08637 17-208 F176V): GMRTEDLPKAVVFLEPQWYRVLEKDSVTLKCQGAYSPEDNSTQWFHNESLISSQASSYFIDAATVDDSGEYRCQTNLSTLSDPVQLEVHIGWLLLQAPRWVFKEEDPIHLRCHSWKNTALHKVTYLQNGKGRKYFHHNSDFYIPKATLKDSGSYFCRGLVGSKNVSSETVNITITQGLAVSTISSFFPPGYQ

Kd [1]: 3.6 µM
Kd [2]: 11 nM
Kd [3]: 0.067 nM
Kd [4]: 2.1 nM
B1: IL6R-BP253/IL6R-L (antibody, human IgG1, kappa)
heavy: QVQLQESGPGLVKPSETLSLTCAVSGHSISHDHAWSWVRQPPGEGLEWIGFISYSGITNYNPSLQGRVTISRDNSKNTLYLQMNSLRAEDTAVYYCARSLARTTAMDYWGEGTLVTVSSASTKGPSVFPLAPSSKSTSGGTAALGCLVKDYFPEPVTVSWNSGALTSGVHTFPAVLQSSGLYSLSSVVTVPSSSLGTQTYICNVNHKPSNTKVDKKVEPKSCDKTHTCPPCPAPELLGGPSVFLFPPKPKDTLMISRTPEVTCVVVDVEHEDPEVKFNWYVDGVEVHNAKTKPREEQYNSTYRVVSVLTVLHQDWLNGKEYKCKVSNKAFPAPIEKTISKAKGQPREPQVYTLPPSRDELTKNQVSLTCLVKGFYPSDIAVEWESNGQPENNYKTTPPVLDSDGSFFLYSKLTVDKSRWQQGNVFSCSVMHEALHNHYTQESLSLSP
light: not shown
notes: Comparison control with existing alterations; copies: 2 + 2

KD(IIaR)/KD(IIb) [5]: 28
KD(IIb) of parent polypeptide/KD(IIb) of altered polypeptide [6]: 161
KD(IIaR) of parent polypeptide/KD(IIaR) of altered polypeptide [7]: 2
Kd [8]: 19 nM
Kd [9]: 540 nM
Kd [10]: 7.7 nM
B2: IL6R-BP478/IL6R-L (antibody)
heavy: QVQLQESGPGLVKPSETLSLTCAVSGHSISHDHAWSWVRQPPGEGLEWIGFISYSGITNYNPSLQGRVTISRDNSKNTLYLQMNSLRAEDTAVYYCARSLARTTAMDYWGEGTLVTVSSASTKGPSVFPLAPCSRSTSESTAALGCLVKDYFPEPVTVSWNSGALTSGVHTFPAVLQSSGLYSLSSVVTVPSSSLGTKTYTCNVDHKPSNTKVDKRVESKYGPPCPPCPAPDLLGDDSVFLFPPKPKDTLMISRTPEVTCVVVDVSDEDGEVKFNWYVDGVEVHNAKTKPREEQDNSTYRVVSVLTVLHQDWLNGKEYKCKVSNKALPRPIEKTISKAKGQPREPQVYTLPPSRDELTKNQVSLTCLVKGFYPSDIAVEWESNGQPENNYKTTPPVLDSDGSFFLYSKLTVDKSRWQQGNVFSCSVMHEALHNHYTQESLSLSP
light: not shown
notes: copies: 2 + 2

fold against IL6R-BP230/IL6R-L [11]: 1.1 fold
fold against IL6R-BP230/IL6R-L [12]: 1.1 fold
B3: IL6R-BP478/IL6R-L (antibody)
heavy: QVQLQESGPGLVKPSETLSLTCAVSGHSISHDHAWSWVRQPPGEGLEWIGFISYSGITNYNPSLQGRVTISRDNSKNTLYLQMNSLRAEDTAVYYCARSLARTTAMDYWGEGTLVTVSSASTKGPSVFPLAPCSRSTSESTAALGCLVKDYFPEPVTVSWNSGALTSGVHTFPAVLQSSGLYSLSSVVTVPSSSLGTKTYTCNVDHKPSNTKVDKRVESKYGPPCPPCPAPDLLGDDSVFLFPPKPKDTLMISRTPEVTCVVVDVSDEDGEVKFNWYVDGVEVHNAKTKPREEQDNSTYRVVSVLTVLHQDWLNGKEYKCKVSNKALPRPIEKTISKAKGQPREPQVYTLPPSRDELTKNQVSLTCLVKGFYPSDIAVEWESNGQPENNYKTTPPVLDSDGSFFLYSKLTVDKSRWQQGNVFSCSVMHEALHNHYTQESLSLSP
light: not shown
notes: IL6R-BP230 in which Ala118-Thr225 (EU numbering) is replaced by Ala118-Pro222 of G4d; copies: 2 + 2
